Data taken from patent US20140271457A1 (AbbVie / Abbott, published 2014).

B1: DVD3169 (bispecific antibody, human IgG1, kappa)
heavy: not shown
light: DIQMTQSPSSLSASVGDRVTITCRASQGIRNYLNWYQQKPGKAPKLLIYYASNLEVGVPSRFSGSGSGTDYTLTISSLQPEDFATYYCQQDNRFPYTFGGGTKVEIKRTVAAPDIQMTQSPSSLSASVGDRVTITCRASQDISQYLNWYQQKPGKAPKLLIYYTSRLQSGVPSRFSGSGSGTDFTLTISSLQPEDFATYFCQQGNTWPPTFGQGTKLEIKRTVAAPSVFIFPPSDEQLKSGTASVVCLLNNFYPREAKVQWKVDNALQSGNSQESVTEQDSKDSTYSLSSTLTLSKADYEKHKVYACEVTHQGLSSPVTKSFNRGEC
notes: DVD-Ig: outer AB399 (IL-13), inner AB441 (TNF); linkers HG-short/LK-short; also called DVD3169H; DVD3169L
B2: DVD3168 (bispecific antibody, human IgG1, kappa)
heavy: not shown
light: DIQMTQSPSSLSASVGDRVTITCRASQGIRNYLNWYQQKPGKAPKLLIYYASNLEVGVPSRFSGSGSGTDYTLTISSLQPEDFATYYCQQDNRFPYTFGGGTKVEIKRGGSGGGGSGDIQMTQSPSSLSASVGDRVTITCRASQDISQYLNWYQQKPGKAPKLLIYYTSRLQSGVPSRFSGSGSGTDFTLTISSLQPEDFATYFCQQGNTWPPTFGQGTKLEIKRTVAAPSVFIFPPSDEQLKSGTASVVCLLNNFYPREAKVQWKVDNALQSGNSQESVTEQDSKDSTYSLSSTLTLSKADYEKHKVYACEVTHQGLSSPVTKSFNRGEC
notes: DVD-Ig: outer AB399 (IL-13), inner AB441 (TNF); linkers GS-H10/GS-L10; also called DVD3168H; DVD3168L
B3: DVD3166 (bispecific antibody, IgG1)
VH: EVQLVQSGAEVKKPGASVKVSCKASGYTFANYGIIWVRQAPGQGLEWMGWINTYTGKPTYAQKFQGRVTMTTDTSTSTAYMELSSLRSEDTAVYYCARKLFTTMDVTDNAMDYWGQGTTVTVSSASTKGPEVQLVQSGAEVKKPGASVKVSCKASGYTFTSYWMHWVRQAPGQGLEWIGNINPKGGSNIYNEKFQGRVTMTRDTSISTAYMELSRLRSDDTAVYYCARLDYFGDSFDLWGQGTTVTVSS
VL: DIQMTQSPSSLSASVGDRVTITCRASQDISQYLNWYQQKPGKAPKLLIYYTSRLQSGVPSRFSGSGSGTDFTLTISSLQPEDFATYFCQQGNTWPPTFGQGTKLEIKRTVAAPSVFIFPPDIQMTQSPSSLSASVGDRVTITCRASQGIRNYLNWYQQKPGKAPKLLIYYASNLEVGVPSRFSGSGSGTDYTLTISSLQPEDFATYYCQQDNRFPYTFGGGTKVEIKR
notes: DVD-Ig; wt hIgG1 + kappa constants
B4: DVD3169 (bispecific antibody, IgG1)
VH: EVQLVQSGAEVKKPGASVKVSCKASGYTFTSYWMHWVRQAPGQGLEWIGNINPKGGSNIYNEKFQGRVTMTRDTSISTAYMELSRLRSDDTAVYYCARLDYFGDSFDLWGQGTTVTVSSASTKGPEVQLVQSGAEVKKPGASVKVSCKASGYTFANYGIIWVRQAPGQGLEWMGWINTYTGKPTYAQKFQGRVTMTTDTSTSTAYMELSSLRSEDTAVYYCARKLFTTMDVTDNAMDYWGQGTTVTVSS
VL: DIQMTQSPSSLSASVGDRVTITCRASQGIRNYLNWYQQKPGKAPKLLIYYASNLEVGVPSRFSGSGSGTDYTLTISSLQPEDFATYYCQQDNRFPYTFGGGTKVEIKRTVAAPDIQMTQSPSSLSASVGDRVTITCRASQDISQYLNWYQQKPGKAPKLLIYYTSRLQSGVPSRFSGSGSGTDFTLTISSLQPEDFATYFCQQGNTWPPTFGQGTKLEIKR
notes: as for B3
B5: DVD3168 (bispecific antibody, IgG1)
VH: EVQLVQSGAEVKKPGASVKVSCKASGYTFTSYWMHWVRQAPGQGLEWIGNINPKGGSNIYNEKFQGRVTMTRDTSISTAYMELSRLRSDDTAVYYCARLDYFGDSFDLWGQGTTVTVSSGGGGSGGGGSEVQLVQSGAEVKKPGASVKVSCKASGYTFANYGIIWVRQAPGQGLEWMGWINTYTGKPTYAQKFQGRVTMTTDTSTSTAYMELSSLRSEDTAVYYCARKLFTTMDVTDNAMDYWGQGTTVTVSS
VL: DIQMTQSPSSLSASVGDRVTITCRASQGIRNYLNWYQQKPGKAPKLLIYYASNLEVGVPSRFSGSGSGTDYTLTISSLQPEDFATYYCQQDNRFPYTFGGGTKVEIKRGGSGGGGSGDIQMTQSPSSLSASVGDRVTITCRASQDISQYLNWYQQKPGKAPKLLIYYTSRLQSGVPSRFSGSGSGTDFTLTISSLQPEDFATYFCQQGNTWPPTFGQGTKLEIKR
notes: as for B3

Legend:
Recombinant Human IL-13 [1] = target: Recombinant Human IL-13 (human, UniProt P35225 35-146, limits assumed); assay: cell-based or functional assay
Target sequence in this assay (P35225 35-146 limits assumed): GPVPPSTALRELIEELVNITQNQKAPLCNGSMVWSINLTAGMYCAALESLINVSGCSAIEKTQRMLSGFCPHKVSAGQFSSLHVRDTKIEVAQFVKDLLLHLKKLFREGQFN

[2] = target: T1, Recombinant Human TNF-α/TNFSF1A (human, UniProt P01375 77-233); assay: SPR (Biacore)
T1 construct: also called huTNFα
T1 sequence (P01375 77-233 limits assumed): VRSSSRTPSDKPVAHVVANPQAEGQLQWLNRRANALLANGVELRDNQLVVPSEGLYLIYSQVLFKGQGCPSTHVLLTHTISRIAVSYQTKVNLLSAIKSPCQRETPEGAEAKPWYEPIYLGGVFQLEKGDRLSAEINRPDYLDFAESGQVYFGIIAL

[3] = target: T2, Recombinant Human TNF-α/TNFSF1A (human, UniProt P01375 77-233); assay: cell-based or functional assay
T2 sequence (P01375 77-233 limits assumed): as above

Recombinant Human IL-13 [4] = target: Recombinant Human IL-13 (human, UniProt P35225 35-146, limits assumed); assay: Biacore SPR
Method in brief: (§1)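 Antibodies or DVD-Ig captured on anti-mouse IgG (Fcγ) CM5 surface, SPR at 25 °C in HBS-EP+. Antigen at 0.8–100 nM, 50 μl/min; association 5 min, dissociation 10 min. kon and koff came from a global 1:1 fit with local Rmax.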
Target sequence in this assay (P35225 35-146 limits assumed): as the sequence (P35225 35-146 limits assumed) above

[5] = target: T2, Recombinant Human TNF-α/TNFSF1A; assay: Biacore SPR
Method in brief: as §1

Row | Binder | IL-13 Neutralization Assay IC50 (Recombinant Human IL-13 [1]) | binding result [2] | N-Terminal VD huTNFα Neutralization Assay IC50 [3] | Kd (Recombinant Human IL-13 [4]) | koff (Recombinant Human IL-13 [4]) | kon (Recombinant Human IL-13 [4]) | Kd [5] | koff [5] | kon [5] | C-Terminal VD huTNFα Neutralization Assay IC50 [3]
1 | B1 | 89 pM | binds |  |  |  |  |  |  |  | 
2 | B2 | 81 pM | binds |  |  |  |  |  |  |  | 
3 | B3 |  |  | 16 pM | 180 pM | 5.1e-05 s⁻¹ | 280000 M⁻¹ s⁻¹ | 27 pM | 0.00013 s⁻¹ | 4.7e+06 M⁻¹ s⁻¹ | 
4 | B4 |  |  |  | 10 pM | 2e-05 s⁻¹ | 1.9e+06 M⁻¹ s⁻¹ | < 1.5 pM | < 1e-06 s⁻¹ | 650000 M⁻¹ s⁻¹ | 169 pM
5 | B5 |  |  |  | 64 pM | 7.4e-05 s⁻¹ | 1.1e+06 M⁻¹ s⁻¹ | 45 pM | 3.6e-05 s⁻¹ | 800000 M⁻¹ s⁻¹ | 146 pM
